Molecular target: UBE2D1 (UniProt P51668 1-147)
Test: ITC

UBE2D1, sequence (P51668 whole entry): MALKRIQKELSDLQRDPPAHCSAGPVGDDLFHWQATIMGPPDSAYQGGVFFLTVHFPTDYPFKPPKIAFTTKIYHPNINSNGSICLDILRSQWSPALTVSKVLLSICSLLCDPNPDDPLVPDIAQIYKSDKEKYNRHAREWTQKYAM

Kd [µM] | stoichiometry N | Binder
3.1 ± 0.7 | ~1 | RING-UBL (designed binder) SLTAQQSSLIREDKSNAKLWNEVLASLKDRPASGSPFQLFLSKVEETFQCICCQELVFRPITTVCQHNVCKDCLDRSFRAQVFSCPACRYDLGRSYAMQVNQPLQTVLNQLFPGYGNGRGGSSGGSSGGSSGGSSMWIQVRTMDGRQTHTVDSLSRLTKVEELRRKIQELFHVEPGLQRLFYRGKQMEDGHTLFDYEVRLNDTIQLLVRQS
– | ~1 | UBOX-UBL (designed binder) AEIDYSDAPDEFRDPIMDTLMTDPVRLPSGTVMDRSIILRHLLNSPTDPFNRQTLTESMLEPVPELKEQIQAWMREKQNSDHGGSSGGSSGGSSMWIQVRTMDGRQTHTVDSLSRLTKVEELRRKIQELFHVEPGLQRLFYRGKQMEDGHTLFDYEVRLNDTIQLLVRQS
